The values below are quoted from earlier work in PMC10743670.

Read-outs that look alike come from different tables or passages of the source.

Data set [1] deals with Asp85 (UniProt position 98, WAQYADWLFTT). To be noted: ground state of the R82Q mutant.
The next data set concerns the target Asp97 (UniProt position 97, VFRYIDWLLTV). To be noted: ground state.
For data set [2], the target named is Asp85 (UniProt position 85, EIRYIDWLVTT). As to conditions: ground state.
Data set [3] has as its target T1, Asp85 (UniProt position 98, WARYADWLFTT). As to conditions: ground (unphotolysed) state of bacteriorhodopsin; purple-to-blue transition.
In data set [4] the target is T1, Asp85. The data set is described as follows: other (described only as 'a titration of bacteriorhodopsin'). As to conditions: bacteriorhodopsin with the proton release group deprotonated.

For the substance “Bacteriorhodopsin R82Q mutant (Halobacterium salinarum (printed as Halobacterium halobium); R82Q)”, the pKa result with Asp85 [1] is “≈7.5”. Regarding “Proteorhodopsin (PR) (uncultured marine gamma-proteobacterium (printed as 'marine γ-proteobacteria'))”, in the data set with Asp97, the pKa entry is given as “∼7.0”. Turning to “Exiguobacterium sibiricum rhodopsin (ESR) H57M mutant (Exiguobacterium sibiricum; H57M)”, in the data set with Asp85 [2], the pKa is recorded as 6.3. On to “Exiguobacterium sibiricum rhodopsin (ESR) (Exiguobacterium sibiricum)”, for which the pKa in the data set with Asp85 [2] is reported as below 2. As for “Bacteriorhodopsin (bR) (Halobacterium salinarum (printed as Halobacterium halobium))”, the pKa entry with Asp85 [3] is “≈2.7”; with Asp85 [4], “≈7.5”.
